# Measured values published in article PMC9352680, “A comprehensive thermodynamic model for RNA binding by the Saccharomyces cerevisiae Pumilio protein PUF4”.
# T1: PUF4 RNA-binding domain (Saccharomyces cerevisiae, UniProt P25339 537-888)
# T1 sequence: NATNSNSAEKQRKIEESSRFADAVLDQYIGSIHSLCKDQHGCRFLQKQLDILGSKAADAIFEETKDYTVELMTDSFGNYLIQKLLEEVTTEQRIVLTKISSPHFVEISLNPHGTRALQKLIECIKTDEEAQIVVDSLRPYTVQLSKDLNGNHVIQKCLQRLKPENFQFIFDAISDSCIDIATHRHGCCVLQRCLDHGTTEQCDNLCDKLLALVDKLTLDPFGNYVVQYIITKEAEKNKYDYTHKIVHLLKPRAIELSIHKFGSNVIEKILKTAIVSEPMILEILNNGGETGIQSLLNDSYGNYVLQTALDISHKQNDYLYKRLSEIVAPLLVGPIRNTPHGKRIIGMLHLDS
# Biological target: T1, PUF4 RNA-binding domain
# Test: Mg; RNA-MaP; 20 mM Na-HEPES pH 7.4, 30 mM KOAc, 0.75 mM MgCl2, 0.1% Tween-20, 5% glycerol, 0.1 mg/mL BSA, 2 mM DTT; 25 C; 0.0125-409.6 nM protein
# Conditions: tags: N-His6-TEV cleaved; C-SNAP kept, Cy3B-labelled; label: tethered on chip by stalled RNA polymerase
row,Binder,Kd
1,UCUCUUUGUAUCAAUUUCUCUU (ssRNA) [Ic_S1_P5E.1_K5.1_C5.1_H5.1_A5.1_[T6C]_F5.1_[T8A]_[A10T]_T5.1],85.2 nM
2,UCUCUUUGUACUGGCUUCUCUU (ssRNA) [Ic_S1_P5E.1_K5.1_C5.1_H5.1_A5.1_[T5C]_[A7G]_F5.1_[T8G]_[T9C]_[A10T]_T5.1],991 nM
3,UCUCUUUGUAAAUCCGUCUCUU (ssRNA) [Ic_S1_P5E.1_K5.1_C5.1_H5.1_A5.1_[T5A]_[T6A]_[A7T]_F5.1_[T8C]_[T9C]_[A10G]_T5.1],747 nM
4,UCUCUUUGUAUGGCUGUCUCUU (ssRNA) [Ic_S1_P5E.1_K5.1_C5.1_H5.1_A5.1_[T6G]_[A7G]_F5.1_[T8C]_[A10G]_T5.1],2120 nM
5,UCUCUUUGUACGUCACUCUCUU (ssRNA) [Ic_S1_P5E.1_K5.1_C5.1_H5.1_A5.1_[T5C]_[T6G]_[A7T]_F5.1_[T8C]_[T9A]_[A10C]_T5.1],580 nM
6,UCUCUUUGUACCUGCCUCUCUU (ssRNA) [Ic_S1_P5E.1_K5.1_C5.1_H5.1_A5.1_[T5C]_[T6C]_[A7T]_F5.1_[T8G]_[T9C]_[A10C]_T5.1],353 nM
7,UCUCUUUGUACCUCGAUCUCUU (ssRNA) [Ic_S1_P5E.1_K5.1_C5.1_H5.1_A5.1_[T5C]_[T6C]_[A7T]_F5.1_[T8C]_[T9G]_T5.1],660 nM
8,UCUCUUUGUACUACACUCUCUU (ssRNA) [Ic_S1_P5E.1_K5.1_C5.1_H5.1_A5.1_[T5C]_F5.1_[T8C]_[T9A]_[A10C]_T5.1],455 nM
9,UCUCUUUGUAGCUUUUUCUCUU (ssRNA) [Ic_S1_P5E.1_K5.1_C5.1_H5.1_A5.1_[T5G]_[T6C]_[A7T]_F5.1_[A10T]_T5.1],516 nM
10,UCUCUUUGUAUAUGAUUCUCUU (ssRNA) [Ic_S1_P5E.1_K5.1_C5.1_H5.1_A5.1_[T6A]_[A7T]_F5.1_[T8G]_[T9A]_[A10T]_T5.1],12.1 nM
11,UCUCUUUGUACACACGUCUCUU (ssRNA) [Ic_S1_P5E.1_K5.1_C5.1_H5.1_A5.1_[T5C]_[T6A]_[A7C]_F5.1_[T8A]_[T9C]_[A10G]_T5.1],122 nM
12,UCUCUUUGUAACCUAUUCUCUU (ssRNA) [Ic_S1_P5E.1_K5.1_C5.1_H5.1_A5.1_[T5A]_[T6C]_[A7C]_F5.1_[T9A]_[A10T]_T5.1],12.8 nM
13,UCUCUUUGUAAACACUUCUCUU (ssRNA) [Ic_S1_P5E.1_K5.1_C5.1_H5.1_A5.1_[T5A]_[T6A]_[A7C]_F5.1_[T8A]_[T9C]_[A10T]_T5.1],666 nM
14,UCUCUUUGUACGUGCCUCUCUU (ssRNA) [Ic_S1_P5E.1_K5.1_C5.1_H5.1_A5.1_[T5C]_[T6G]_[A7T]_F5.1_[T8G]_[T9C]_[A10C]_T5.1],583 nM
15,UCUCUUUGUAUUUGUCUCUU (ssRNA) [Ic_S1_P3E.1_K3.1_C3.1_H3.1_A3.1_[A6T]_F3.1_[A8G]_T3.1],106 nM
16,UCUCUUUGUACCUUUAUCUCUU (ssRNA) [Ic_S1_P5E.1_K5.1_C5.1_H5.1_A5.1_[T5C]_[T6C]_[A7T]_F5.1_T5.1],6.83 nM

row,Binder,Kd
1,UCUCUUUGUAUCGCCGUCUCUU (ssRNA) [Ic_S1_P5E.1_K5.1_C5.1_H5.1_A5.1_[T6C]_[A7G]_F5.1_[T8C]_[T9C]_[A10G]_T5.1],> 2300 nM
2,UCUCUUUGUAAACUGGUCUCUU (ssRNA) [Ic_S1_P5E.1_K5.1_C5.1_H5.1_A5.1_[T5A]_[T6A]_[A7C]_F5.1_[T9G]_[A10G]_T5.1],16.9 nM
3,UCUCUUUGUAGCCCUAUCUCUU (ssRNA) [Ic_S1_P5E.1_K5.1_C5.1_H5.1_A5.1_[T5G]_[T6C]_[A7C]_F5.1_[T8C]_T5.1],113 nM
4,UCUCUUUGUAAAAACCUCUCUU (ssRNA) [Ic_S1_P5E.1_K5.1_C5.1_H5.1_A5.1_[T5A]_[T6A]_F5.1_[T8A]_[T9C]_[A10C]_T5.1],1140 nM
5,UCUCUUUGUAUCCGUGUCUCUU (ssRNA) [Ic_S1_P5E.1_K5.1_C5.1_H5.1_A5.1_[T6C]_[A7C]_F5.1_[T8G]_[A10G]_T5.1],1060 nM
6,UCUCUUUGUAAACGCUUCUCUU (ssRNA) [Ic_S1_P5E.1_K5.1_C5.1_H5.1_A5.1_[T5A]_[T6A]_[A7C]_F5.1_[T8G]_[T9C]_[A10T]_T5.1],854 nM
7,UCUCUUUGUAGCGUUAUCUCUU (ssRNA) [Ic_S1_P5E.1_K5.1_C5.1_H5.1_A5.1_[T5G]_[T6C]_[A7G]_F5.1_T5.1],36.4 nM
8,UCUCUUUGUACCUGGCUCUCUU (ssRNA) [Ic_S1_P5E.1_K5.1_C5.1_H5.1_A5.1_[T5C]_[T6C]_[A7T]_F5.1_[T8G]_[T9G]_[A10C]_T5.1],489 nM
9,UCUCUUUGUAAGCUUUUCUCUU (ssRNA) [Ic_S1_P5E.1_K5.1_C5.1_H5.1_A5.1_[T5A]_[T6G]_[A7C]_F5.1_[A10T]_T5.1],643 nM
10,UCUCUUUGUAACCUAGUCUCUU (ssRNA) [Ic_S1_P5E.1_K5.1_C5.1_H5.1_A5.1_[T5A]_[T6C]_[A7C]_F5.1_[T9A]_[A10G]_T5.1],4.64 nM
11,UCUCUUUGUAUUGUCUUCUCUU (ssRNA) [Ic_S1_P5E.1_K5.1_C5.1_H5.1_A5.1_[A7G]_F5.1_[T9C]_[A10T]_T5.1],101 nM
12,UCUCUUUGUAAUUUAGUCUCUU (ssRNA) [Ic_S1_P5E.1_K5.1_C5.1_H5.1_A5.1_[T5A]_[A7T]_F5.1_[T9A]_[A10G]_T5.1],3.08 nM
13,UCUCUUUGUAGCUGUAUCUCUU (ssRNA) [Ic_S1_P5E.1_K5.1_C5.1_H5.1_A5.1_[T5G]_[T6C]_[A7T]_F5.1_[T8G]_T5.1],47.8 nM
14,UCUCUUUGUAGCAACCUCUCUU (ssRNA) [Ic_S1_P5E.1_K5.1_C5.1_H5.1_A5.1_[T5G]_[T6C]_F5.1_[T8A]_[T9C]_[A10C]_T5.1],1850 nM
15,UCUCUUUGUAUGUCCUUCUCUU (ssRNA) [Ic_S1_P5E.1_K5.1_C5.1_H5.1_A5.1_[T6G]_[A7T]_F5.1_[T8C]_[T9C]_[A10T]_T5.1],88.1 nM
16,UCUCUUUGUAUUCGAUUCUCUU (ssRNA) [Ic_S1_P5E.1_K5.1_C5.1_H5.1_A5.1_[A7C]_F5.1_[T8G]_[T9A]_[A10T]_T5.1],466 nM
